Laboratory results published in US20190309034A1 (Boehringer Ingelheim, published 2019).
Residue numbers refer to the chain shown, from its start. One block for each binder: values may come before it.

Columns and labels:
[1] = biological target: Recombinant soluble 60-mer human BAFF (His-HuBAFF 134-285) (human, UniProt Q9Y275 134-285); assay: cell-based or functional assay
[2] = biological target: Recombinant soluble trimeric human BAFF (furin-cleaved human BAFF 134-285) (human, UniProt Q9Y275 134-285); assay: cell-based or functional assay

Soluble 60-mer huBAFF (4 pM) Neutralization IC50 [1]: 8 pM | Soluble 60-mer huBAFF (4 pM) Neutralization IC90 [1]: 24 pM | Soluble trimeric huBAFF (50 pM) Neutralization IC50 [2]: 91 pM | Soluble trimeric huBAFF (50 pM) Neutralization IC90 [2]: 331 pM
B1: 319B8A12 (antibody, V domains shown)
VH: KVTLKESGPGILQPSQTLSLTCSFSGFSLRTFGMGVGWIRQPSGKGLEWLAHIWWNDEKYYNPDLKSRLTVSKDSSKNQVFLTIANVDTSDTAPYYCTRVGPSISTVAEGFPYWGQGTLVTVSA
VL: DIVMTQSQKFVSTRVGDRVSITCKASQNVGAAVVWYQQKSGQPPKLLIRSASNRYIGVPDRFTGSGSGTDFTLTVSDVQSGDLADYFCQQYSNYPLTFGAGTKLELTR

Soluble 60-mer huBAFF (4 pM) Neutralization IC50 [1]: 9 pM | Soluble 60-mer huBAFF (4 pM) Neutralization IC90 [1]: 29 pM | Soluble trimeric huBAFF (50 pM) Neutralization IC50 [2]: 110 pM | Soluble trimeric huBAFF (50 pM) Neutralization IC90 [2]: 329 pM
B2: 348A6C1 (antibody, V domains shown)
VH: B1 VH with K1Q, K5R, D64A, K77E, T83K, S90T, T98A, V100L, S105T
VL: B1 VL with V11M, R14T, V34A, S40P, G81V

Soluble 60-mer huBAFF (4 pM) Neutralization IC50 [1]: 13 pM | Soluble 60-mer huBAFF (4 pM) Neutralization IC90 [1]: 39 pM | Soluble trimeric huBAFF (50 pM) Neutralization IC50 [2]: 28 pM | Soluble trimeric huBAFF (50 pM) Neutralization IC90 [2]: 329 pM
B3: 537G7A6 (antibody, V domains shown)
VH: QVQLKESGPGLVAPSQSLSITCTVSGFSLSRYSVHWIRQSPGKGLEWLGMIWGGGNTDYNSGLKSRLSISKDNSKSQVFLKMNSLENDDTAMYYCASPSLYYYDVAWFPYWGQGTLVTVSA
VL: DIVLTQSPASLAVSVGQRATVSCRVSESVDRYADSFMHWYQQKPGQPPKLLIYLASNLESGVPARFSGSGSRTDFTLTIDPVEADDAATYYCQQNKEDPYTFGGGTKLELK

Soluble 60-mer huBAFF (4 pM) Neutralization IC50 [1]: 10 pM | Soluble 60-mer huBAFF (4 pM) Neutralization IC90 [1]: 24 pM | Soluble trimeric huBAFF (50 pM) Neutralization IC50 [2]: 110 pM | Soluble trimeric huBAFF (50 pM) Neutralization IC90 [2]: 3110 pM
B4: 320F9C5 (antibody, V domains shown)
VH: QVTLKESGPGILQSSQTLSLTCSFSGFSLRTFGMGVGWIRQPSGKGLEWLAHIWWNDDKSSHPALKSRLTISKDTSKNQVFLKIANVDTAETATYYCVRIGPSITTVAEGFAYWGQGTLVTVSA
VL: DIVMTQSQKFMSTTVGDRVSITCKASQNVGSVVAWYQQRPGQSPTLLIYSASNRYTGVPDRFTGSGSGTDFTLTISNMQSEDLADYFCQQYSSYPLTFGAGTKLELK

Soluble 60-mer huBAFF (4 pM) Neutralization IC50 [1]: 9 pM | Soluble 60-mer huBAFF (4 pM) Neutralization IC90 [1]: 23 pM | Soluble trimeric huBAFF (50 pM) Neutralization IC50 [2]: 21 pM | Soluble trimeric huBAFF (50 pM) Neutralization IC90 [2]: 473 pM
B5: 363D4A10 (antibody, V domains shown)
VH: B4 VH with R30K, S60F, S61Y
VL: DIVMTQSQKFMSTTVGDRVTITCKASQNVGSAVVWYQQKPGQSPILLIFSASNRYTGVPDRITGSGSGAEFTLTISSVQSEDLAEYFCQQYSSYPLTFGAGTKLELK

Soluble 60-mer huBAFF (4 pM) Neutralization IC50 [1]: 12 pM | Soluble 60-mer huBAFF (4 pM) Neutralization IC90 [1]: 44 pM | Soluble trimeric huBAFF (50 pM) Neutralization IC50 [2]: 29 pM | Soluble trimeric huBAFF (50 pM) Neutralization IC90 [2]: 378 pM
B6: 606H7F8 (antibody, V domains shown)
VH: VQLVESGGGLVKPGGSLKLSCAASGFTFSSYDMSWVRQTPEKRLEWVAAINSYGVNTYYPDTVKDRFTISRDNAKNTLYLQMSSLRSEDTALYYCARLLIGPYYYAMDYWGQGTSVTVSS
VL: DIQMTQSPASLSASVGETVTITCRASGNIHNYLAWYQQKQGKSPQLLVYNAKTLADGVPSRFSGSGSGTQFSLKINSLQPEDFGSYYCQHFWSTPYTFGGGTKLEIK

Soluble 60-mer huBAFF (4 pM) Neutralization IC50 [1]: 11 pM | Soluble 60-mer huBAFF (4 pM) Neutralization IC90 [1]: 32 pM | Soluble trimeric huBAFF (50 pM) Neutralization IC50 [2]: 102 pM | Soluble trimeric huBAFF (50 pM) Neutralization IC90 [2]: 352 pM
B7: 344B9D9 (antibody, V domains shown)
VH: EFQLQQSGPELGEPGASVKISCKASGFSFSDYNINWVKQSNGKSLEWIGKVHPKDGTATYNQKFQDKATLTLDQSSSTAYMQLSSLTSEDSAVYYCLPLYYDSLTKILFAYWGQGTLVTVSA
VL: B6 VL with N50S, K52I, G68E, S85I, S93N

Soluble 60-mer huBAFF (4 pM) Neutralization IC50 [1]: 234 pM | Soluble 60-mer huBAFF (4 pM) Neutralization IC90 [1]: 1980 pM | Soluble trimeric huBAFF (50 pM) Neutralization IC50 [2]: 110 pM | Soluble trimeric huBAFF (50 pM) Neutralization IC90 [2]: 257 pM
B8: 551H4D6 (antibody, V domains shown)
VH: EVQLQQSGAELVRPGASVELSCTASGFNIKNDYLHWVKQRPEQGLEWIGWIDSANDKTKYAPKFQDKATITADPSSNTAYLQLSSLTSEDTAVYYCTRVGVQDGYYVRDFDYWGQGTTLTVSS
VL: DIVLTQSPASLAVSLGQRATMSCRASESVDSYGNSFIHWYQQKPGQPPRLLIYRASNLNSGIPARFSGSGSRTDFTLTISSVEADDVATYYCHQNNEDPRTFGGGTKLEIK

Soluble 60-mer huBAFF (4 pM) Neutralization IC50 [1]: 13 pM | Soluble 60-mer huBAFF (4 pM) Neutralization IC90 [1]: 30 pM | Soluble trimeric huBAFF (50 pM) Neutralization IC50 [2]: 35 pM | Soluble trimeric huBAFF (50 pM) Neutralization IC90 [2]: 324 pM
B9: 560H2A7 (antibody, V domains shown)
VH: EVKLVESGGGLVQPGGSLSLSCAGSGFTFSDYYMSWVRQPPGKALEWLALIRNKAPGYTTEYSASVKGRFTISRDNSQSILYLQMNALRPEDSATYYCARVLRRADCLDYWGQGTALTVSS
VL: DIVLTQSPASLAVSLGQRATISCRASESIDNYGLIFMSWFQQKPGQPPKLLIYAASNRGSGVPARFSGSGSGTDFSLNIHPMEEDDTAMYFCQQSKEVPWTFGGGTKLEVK

Soluble 60-mer huBAFF (4 pM) Neutralization IC50 [1]: 11 pM | Soluble 60-mer huBAFF (4 pM) Neutralization IC90 [1]: 33 pM | Soluble trimeric huBAFF (50 pM) Neutralization IC50 [2]: 55 pM | Soluble trimeric huBAFF (50 pM) Neutralization IC90 [2]: 326 pM
B10: 27I21-3C7 (antibody, V domains shown)
VH: QVQLQQSGPELVRPGTSVKISCKAPGYIFTSHWMQWVRQRPGQGLEWIGDIFPGSGTTDYNEKFKDKATVTVDRSSSSAYMQFNSLTSEDSAVYFCASGAFDYWGQGTTLTVSS
VL: DIQMTQSPSSLSASLGERVSLTCRASQDIGNRLNWLQQAPDGTIKRLIYATSSLDSGVPKRFSGSRSGSDYSLTISSLESEDFVDYYCLQYASYPFTFGTGTKLEIK

Soluble 60-mer huBAFF (4 pM) Neutralization IC50 [1]: 24 pM | Soluble 60-mer huBAFF (4 pM) Neutralization IC90 [1]: 130 pM | Soluble trimeric huBAFF (50 pM) Neutralization IC50 [2]: 36 pM | Soluble trimeric huBAFF (50 pM) Neutralization IC90 [2]: 602 pM
B11: 450A2A7 (antibody, V domains shown)
VH: QVQLQQSGPELVKPGASVKLSCKASGYTFTDYSIHWVKQSPGQGLEWIGWIYPGSDNTKYNDKFKGKASMTADKSSRTVYMHLSSLTSEESAVYFCARDYRRYYAMDYWGQGTSVTVSS
VL: IVLTQSSASLAVSLGQRATISCRASESVDRYGNSLMHWYQQKPGQPPKLLIYIASNLESGVPARFSGSGSRTDFTLTIDPVEADDAATYYCQQNNEDPRTFGGGTKLEIK

Soluble 60-mer huBAFF (4 pM) Neutralization IC50 [1]: 4 pM | Soluble 60-mer huBAFF (4 pM) Neutralization IC90 [1]: 13 pM | Soluble trimeric huBAFF (50 pM) Neutralization IC50 [2]: 97 pM | Soluble trimeric huBAFF (50 pM) Neutralization IC90 [2]: 327 pM
B12: 317H2A6 (antibody, V domains shown)
VH: QVTLKESGPGILQPSQTLSLTCSFSGFSLRTFGMGVGWIRQPSGKGLEWLAHIWWNGDKYYDPALKSRLTISKDTSENRVFLNIANVDTTDTAPYYCVRIGPSITTVAEGFAYWGQGTLVTVSA
VL: DIVMTQSQKFLSTTIGDRVSITCKASQNVGSAVVWYQQKPGQPPKLLITSASNRYSGVPDRFTGSGSGTDFTLTVSNVQSVDLADYFCQQYSNYPLTFGAGTKLELK

Soluble 60-mer huBAFF (4 pM) Neutralization IC50 [1]: 6 pM | Soluble 60-mer huBAFF (4 pM) Neutralization IC90 [1]: 23 pM | Soluble trimeric huBAFF (50 pM) Neutralization IC50 [2]: 148 pM | Soluble trimeric huBAFF (50 pM) Neutralization IC90 [2]: 312 pM
B13: 323E9D1 (antibody, V domains shown)
VH: B1 VH with K1Q, L29M, V107I
VL: B12 VL with L11V, T14R, I15V, S31A, P40S, T49R, S56I, N77D, V81G, K107T

Soluble 60-mer huBAFF (4 pM) Neutralization IC50 [1]: 21 pM | Soluble 60-mer huBAFF (4 pM) Neutralization IC90 [1]: 90 pM | Soluble trimeric huBAFF (50 pM) Neutralization IC50 [2]: 99 pM | Soluble trimeric huBAFF (50 pM) Neutralization IC90 [2]: 444 pM
B14: 352G11A10 (antibody, V domains shown)
VH: QVQLQQSGPELVKPGGSVRISCKASGYSLISYYIHWVKQRPGQGLEWIGLTFPGSGNSKFIEKFKGKATLTADTSSNTAYIQLSSLTSEDSAVYYCTRGDFGNYLAYWYFDVWGTGTTVTVSS
VL: DIKMTQSPSSIYASLGERVTITCKASQDIHSYLSWFQQKPGKSPKTLMYRTNRLVDGVPSRFSGSGSGQDYSLTIRSLEYEDMGNYYCLQYDEFPYTFGGGAKLEVK

Soluble 60-mer huBAFF (4 pM) Neutralization IC50 [1]: 12 pM | Soluble 60-mer huBAFF (4 pM) Neutralization IC90 [1]: 40 pM | Soluble trimeric huBAFF (50 pM) Neutralization IC50 [2]: 99 pM | Soluble trimeric huBAFF (50 pM) Neutralization IC90 [2]: 457 pM
B15: 332C1B12 (antibody, V domains shown)
VH: QVQLQQPGAELVKPGASVKLSCKASGYTFTNDNYWMNWMKQRPGRGLEWIGRIRPSDSETHYNQKFTNKATLTVDKSSSTAYIQLSSLTSVDSAVYYCARSWEDLLLRSMEDYFDYWGQGTTLTVSS
VL: DIVLTQSPASLPVSLGQRATISCRASKGVSTSSYTFIHWYQQKPGQPPKLLIKYASNLESGVPARFSGSGSGTDFTLNIHPVEEEDVATYYCQHSREFPRTFGGGTKLEIK

Soluble 60-mer huBAFF (4 pM) Neutralization IC50 [1]: 12 pM | Soluble 60-mer huBAFF (4 pM) Neutralization IC90 [1]: 35 pM | Soluble trimeric huBAFF (50 pM) Neutralization IC50 [2]: 25 pM | Soluble trimeric huBAFF (50 pM) Neutralization IC90 [2]: 284 pM
B16: 444G1A10 (antibody, V domains shown)
VH: RVQLKESGPGLVAPSQSLFITCTVSGFSLTTYEINWVRQSPGKGLEWLGVIWTGGTTKYNSAFISRLSITKDNSKSLVFLKMSSLQTDDTAIYYCVREGRRYYAMDYWGQGTSVTVSS
VL: NIVLTQSPASLAVSLGQRATISCRASESVDSYGNSFMFWFQQKPGQAPKLLIFLTSNLESGVPARFSGSGSRTDFTLTIDRVEADDAATYYCQQSNEDPRTFGGGTKLEIK
